The record followed here is patent publication US20100322935A1 (Hoffmann-La Roche, published 2010).

As a reminder, the Kd is the equilibrium constant for the complex coming apart. One may read the koff as the rate constant with which the complex falls apart. A high value points to a short-lived complex. Usually kon stands for the rate constant with which the complex forms. A low value points to slow association.

The target of assay [1] is T1, human EGFR ECD (Extracellular Domain) (human, UniProt P00533 25-645).
T1 construct: extracellular domain; also called EGFR (HER1); HER1
In words: SPR (Biacore T100). The text has this:
(§1) Briefly, for affinity measurements Goat-Anti-Human IgG, JIR 109-005-098 antibodies were immobilized on a CM5 chip via amine coupling for presentation of the antibodies against human ECD-Fc tagged. […] Biacore T100 Evaluation Software version 1.1.1 was used for analysis of sensorgrams and for calculation of affinity data.
(§2) Binding of the generated antibodies to human ANGPT2 and VEGF was also investigated by surface plasmon resonance using a BIACORE T100 instrument (GE Healthcare Biosciences AB, Uppsala, Sweden). Briefly, for affinity measurements goat<hIgG-Fcg> polyclonal antibodies were immobilized on a CM5 or CM4 chip via amine coupling for presentation of the antibodies against human ANGPT2 and VEGF. […] Biacore T100 Evaluation Software version 1.1.1 was used for analysis of sensorgrams and for calculation of affinity data.
Background: In SPR one partner is held on a chip, and binding of the other changes the refractive index at the surface.

Assay [2] addresses T2, human VEGF165/VEGF121-His (human, UniProt P15692-4 27-191, limits assumed).
T2 construct: R&D Systems or in house purified; also called VEGF-A; hVEGF
Description: SPR (Biacore T100).
Text: as §1, §2

T2 sequence (P15692 other isoform, or with tags, fused parts or gaps limits assumed): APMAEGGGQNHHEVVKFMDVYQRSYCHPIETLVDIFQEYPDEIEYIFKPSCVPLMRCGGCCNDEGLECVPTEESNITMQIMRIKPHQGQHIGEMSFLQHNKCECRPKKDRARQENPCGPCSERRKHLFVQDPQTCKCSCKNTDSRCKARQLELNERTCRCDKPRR

B1: trispecific and tetravalent antibody recognizing Angiopoietin-2, VEGF-A, and EGFR according to FIG. 5a (antibody, human IgG1, kappa)
light 1: QPGLTQPPSVSVAPGQTARITCGGNNIGSKSVHWYQQKPGQAPVLVVYDDSDRPSGIPERFSGSNSGNTATLTISRVEAGDEADYYCQVWDSSSDHYVFGTGTKVTVLRTVAAPSVFIFPPSDEQLKSGTASVVCLLNNFYPREAKVQWKVDNALQSGNSQESVTEQDSKDSTYSLSSTLTLSKADYEKHKVYACEVTHQGLSSPVTKSFNRGEC
heavy 1: not shown
light 2: DIQMTQSPSSLSASVGDRVTITCSASQDISNYLNWYQQKPGKAPKVLIYFTSSLHSGVPSRFSGSGSGTDFTLTISSLQPEDFATYYCQQYSTVPWTFGQGTKVEIKSSASTKGPSVFPLAPSSKSTSGGTAALGCLVKDYFPEPVTVSWNSGALTSGVHTFPAVLQSSGLYSLSSVVTVPSSSLGTQTYICNVNHKPSNTKVDKKVEPKSC
heavy 2: not shown
notes: Trispecific, tetravalent: four different chains, each once; CH1/CL (Ckappa) domain exchanged knobs-into-holes antibody; scFvs fused via a (G4S)4 connector; Expressed in HEK293F cells; also called trispecific antibody with disulfide stabilized scFv against EGFR on both heavy chains
In assay [1], B1 displayed a Kd of 6 nM, a koff of 0.00023 s⁻¹ and an association rate constant (kon) of 47000 M⁻¹ s⁻¹. In assay [2], the equilibrium dissociation constant (Kd) is below 0.1 nM, the koff is below 1e-06 s⁻¹ and the on-rate constant (kon) stood at 100000 M⁻¹ s⁻¹.
